Results on 3 molecules are retold here after patent US20240425607A1 (COMPUGEN, published 2024).

Test [1] has as its target T1, mouse IL-18BP (construct not stated) (mouse, UniProt Q9Z0M9 29-193, limits assumed).
T1 construct: also called mIL18-BP
T1 sequence (looked up): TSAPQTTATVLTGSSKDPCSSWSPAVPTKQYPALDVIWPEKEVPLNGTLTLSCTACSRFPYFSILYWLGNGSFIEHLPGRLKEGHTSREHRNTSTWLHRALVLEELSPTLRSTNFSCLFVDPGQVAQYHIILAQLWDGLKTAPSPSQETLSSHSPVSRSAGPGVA
Kind of test: KinExA, solution equilibrium. (In KinExA the mixture passes briefly over coated beads that capture the unbound partner.)

In test [2] the target is T2, cynomolgus monkey IL-18BP (construct not stated) (cynomolgus monkey).
T2 construct: also called cyno IL18BP; cyno IL-18BP
Kind of test: KinExA (figure legend; the text prints 208 fM).

The target in test [3] is T3, human IL-18BP (recombinant, construct not stated) (human, UniProt O95998 31-194).
T3 construct: also called hIL-18BP; human monomeric IL18BP
T3 sequence: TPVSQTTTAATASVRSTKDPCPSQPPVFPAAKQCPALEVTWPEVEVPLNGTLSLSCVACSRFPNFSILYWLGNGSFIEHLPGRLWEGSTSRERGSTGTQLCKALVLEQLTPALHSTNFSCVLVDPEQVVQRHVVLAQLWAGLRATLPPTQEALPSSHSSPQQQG
Kind of test: KinExA, solution equilibrium.

The target in test [4] is T2, cynomolgus monkey IL-18BP (construct …). Description: KinExA, solution equilibrium.
For a further test, the target named is T4, mouse IL18-BP-Fc (mouse, UniProt Q9Z0M9 29-193, limits assumed).
T4 construct: R&D cat; 122-BP is named for the AbD35328 SPR; also called mouse IL18-BP-Fc (cat. 122-BP, R&D); mouse IL18-BP Fc fusion protein
T4 sequence (looked up): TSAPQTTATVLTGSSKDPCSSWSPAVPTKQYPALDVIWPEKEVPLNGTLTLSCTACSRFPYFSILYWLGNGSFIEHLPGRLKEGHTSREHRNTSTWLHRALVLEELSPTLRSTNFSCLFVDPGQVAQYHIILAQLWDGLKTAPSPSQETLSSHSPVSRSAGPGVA
Kind of test: Biacore T100; mouse IL18BP-Fc captured on anti-human Fc, Fab 300-2.21 nM in solution. Background: Surface plasmon resonance follows binding to a sensor surface in real time, without labels.

B1: mouse IL-18 (ligand, UniProt P70380 36-192, looked up)
chain: NFGRLHCTTAVIRNINDQVLFVDKRQPVFEDMTDIDQSASEPQTRLIIYMYKDSEVRGLAVTLSVKDSKMSTLSCKNKIISFEEMDPPENIDDIQSDLIFFQKRVPGHNKMEFESSLYEGHFLACQKEDDAFKLILKKKDENGDKSVMFTLTNLHQS
notes: also called mIL-18; mouse IL-18 biotinylated (Sino Biological)
The term Kd denotes the equilibrium constant for the complex coming apart. Turning to B1, in test [1], the Kd is approximately 3.7 pM.

B2: ADI-71739 (antibody, V domains shown)
VH: QLQLQESGPGLVKPSETLSLTCTVSGGSISSPDYPWGWIRQPPGKGLEWIGSIYYQGATYYNPSLKSRVTISVDTSKNQFSLKLSSVTAADTAVYYCARGPYRQLFDYWGQGTLVTVSS
VL: DIQMTQSPSSVSASVGDRVTITCRASQGISSWLAWYQQKPGKAPKLLIYAASSLQSGVPSRFSGSGSGTDFTLTISSLQPEDFATYYCQQGSVFPYTFGGGTKVEIK
Regarding B2, the dissociation constant Kd is 0.209 pM in test [2], approximately 0.291 pM in test [3] and approximately 0.208 pM in test [4].

B3: ADI-71739 Fab fragment (Fab, V domains shown)
VH: QLQLQESGPGLVKPSETLSLTCTVSGGSISSPDYPWGWIRQPPGKGLEWIGSIYYQGATYYNPSLKSRVTISVDTSKNQFSLKLSSVTAADTAVYYCARGPYRQLFDYWGQGTLVTVSS
VL: DIQMTQSPSSVSASVGDRVTITCRASQGISSWLAWYQQKPGKAPKLLIYAASSLQSGVPSRFSGSGSGTDFTLTISSLQPEDFATYYCQQGSVFPYTFGGGTKVEIK
notes: Used for the Biacore measurement on mouse IL18BP-Fc; also called anti-IL18BP Fab
As to B3, the dissociation constant (Kd) in the test with mouse IL18-BP-Fc is approximately 4000 pM.
